Test results as given in US20120149875A1.

Legend:
[1] = biological target: Fc-Fusion Protein (human soluble TNFα receptor linked to the Fc component of human immunoglobulin G1) (human) [IgG part: P01857]; assay: frontal analysis with CHO supernatant feed, fractions analysed on HiTrap MabSelect SuRe, residence time 6 min
[2] = biological target: Fc-Fusion Protein (human soluble TNFα receptor linked to the Fc component of human immunoglobulin G1) (human) [IgG part: P01857]; assay: frontal analysis with CHO supernatant feed, Z4 medium of low ligand density, residence time 2.4 min
[3] = biological target: Fc-Fusion Protein (human soluble TNFα receptor linked to the Fc component of human immunoglobulin G1) (human) [IgG part: P01857]; assay: frontal analysis with CHO supernatant feed, Z4 medium of low ligand density, residence time 6 min
[4] = biological target: Fc-Fusion Protein (human soluble TNFα receptor linked to the Fc component of human immunoglobulin G1) (human) [IgG part: P01857]; assay: frontal analysis with CHO supernatant feed, fractions analysed on HiTrap MabSelect SuRe, residence time 2.4 min

Substance: Z4, tetramer of alkaline stabilized protein A (SuRe ligand domain / Z domain), MabSelect SuRe (designed binder)
- DBC10% (dynamic binding capacity at 10% breakthrough) [1]: 10 mg/mL
- DBC10% (dynamic binding capacity at 10% breakthrough) [2]: 5 mg/mL
- DBC10% (dynamic binding capacity at 10% breakthrough) [3]: 9 mg/mL
- DBC10% (dynamic binding capacity at 10% breakthrough) [4]: 6 mg/mL
